T1: recombinant human activated Factor VII (FVIIa) (human, UniProt P08709 61-212; P08709 213-466, Gla domain: ten glutamate residues may be gamma-carboxylated)
T1 construct: two-chain form after cleavage between Arg152 and Ile153; light chain (Gla, EGF domains) and heavy chain (protease domain) tethered by a disulfide bond; also called rFVIIa; human FVIIa
T1 sequence 1: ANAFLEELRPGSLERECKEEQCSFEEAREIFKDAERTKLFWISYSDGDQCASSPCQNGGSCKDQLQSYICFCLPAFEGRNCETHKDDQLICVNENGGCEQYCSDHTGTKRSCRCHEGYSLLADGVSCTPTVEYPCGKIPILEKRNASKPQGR
T1 sequence 2: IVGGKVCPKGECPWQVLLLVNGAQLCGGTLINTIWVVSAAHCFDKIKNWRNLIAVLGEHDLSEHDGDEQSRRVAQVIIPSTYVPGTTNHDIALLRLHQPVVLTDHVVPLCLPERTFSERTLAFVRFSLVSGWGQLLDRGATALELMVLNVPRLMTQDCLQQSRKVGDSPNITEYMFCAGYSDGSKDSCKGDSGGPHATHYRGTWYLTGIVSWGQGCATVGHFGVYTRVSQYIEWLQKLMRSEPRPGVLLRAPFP

T2: murine FVII(a) (mouse, UniProt P70375 42-446)
T2 sequence (looked up): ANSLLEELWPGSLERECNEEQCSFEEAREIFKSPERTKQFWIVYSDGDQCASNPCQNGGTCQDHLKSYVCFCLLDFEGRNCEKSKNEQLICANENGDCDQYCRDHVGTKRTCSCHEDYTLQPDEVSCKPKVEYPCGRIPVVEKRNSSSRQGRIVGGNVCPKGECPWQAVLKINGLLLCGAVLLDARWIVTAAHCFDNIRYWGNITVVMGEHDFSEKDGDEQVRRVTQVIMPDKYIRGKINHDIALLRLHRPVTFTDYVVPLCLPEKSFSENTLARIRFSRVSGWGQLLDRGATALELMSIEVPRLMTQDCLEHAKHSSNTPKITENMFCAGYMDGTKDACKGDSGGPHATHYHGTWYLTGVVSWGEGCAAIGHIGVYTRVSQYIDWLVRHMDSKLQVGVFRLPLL


Legend:
[1] = biological target: T1, recombinant human activated Factor VII …; assay: SPR (Biacore T200), captured antibody, FVIIa injected at 5-135 nM, 1:1 model
Experimental: Anti-murine IgG (by GE Healthcare) was immobilised on a CM4 sensor chip using standard amine coupling chemistry kit (both supplied by GE Healthcare). […] The running buffer was prepared by diluting 10-fold the 10×HBS-P buffer (supplied by GE Healthcare) and supplemented with 1 mg/ml BSA and 5 mM CaCl₂) to give 10 mM HEPES, 150 mM NaCl, 0.05% v/v Polysorbate 20(P20), pH 7.4, 5 mM CaCl₂), 1 mg/ml bovine serum albumin (BSA). […] Regeneration of the chip was achieved using regeneration buffer consisting of 10 mM Gly-HCl pH 1.7 (supplied by GE Healthcare). Binding data were analysed according to a 1:1 model using BiaEvaluation 4.1 supplied by the manufacturer (Biacore AB, Uppsala, Sweden).

[2] = biological target: T1, recombinant human activated Factor VII …; assay: cell-based or functional assay
murine FVII(a) = biological target: T2, murine FVII(a); assay: not told; stated as the reason for co-administering human FVII(a) in the mouse model

Binder | Kd [1] [pM] | AT inhibition (kinh %) [2] [%] | binding result (murine FVII(a))
mAb0048 (antibody, human IgG4 S228P, kappa, V domains shown, murine variable domains, human IgG4 S228P constant domain (type A), human kappa; also called 11F2 murine/human chimera) VH: DVQLQESGPGLVEPSQSLSLTCTVTGYSITSDCAWSWIRQFPGNKLEWMGYINYSGSTNYNPSLKSRISVTRDTSKNQFFLRLSSVTAEDTATYYCTRSVNYYGNSFAVGYWGQGTSVTVSS VL: DIVMTQSPATLSVTAGDRVSLSCRASQGISDYLHWYQQKSHESPRLLIKYTSQPVSGIPSRFSGSGSGSEFTLSINSVEPEDVGVYYCQNGHSFPLTFGAGTKLELKR | 29 | 109 | –
biAb0001 (bispecific antibody, human IgG4 S228P, kappa, also called anti-FVII(a)/anti-TLT-1 bispecific antibody; mAb0865 x mAb1076) heavy 1: QVQLQESGPGLVKPSQTLSLTCTVSGYSISSDSAWSWIRQPPGKGLEWIGYIQYSGSTNYNPSLKSRVTISRDTSKNQFSLKLSSVTAADTAVYYCARSVNYYGNSFAVGYWGQGTLVTVSSASTKGPSVFPLAPCSRSTSESTAALGCLVKDYFPEPVTVSWNSGALTSGVHTFPAVLQSSGLYSLSSVVTVPSSSLGTKTYTCNVDHKPSNTKVDKRVESKYGPPCPPCPAPEFLGGPSVFLFPPKPKDTLMISRTPEVTCVVVDVSQEDPEVQFNWYVDGVEVHNAKTKPREEQFNSTYRVVSVLTVLHQDWLNGKEYKCKVSNKGLPSSIEKTISKAKGQPREPQVYTLPPSQEEMTKNQVSLTCLVKGFYPSDIAVEWESNGQPENNYKTTPPVLDSDGSFLLYSKLTVDKSRWQEGNVFSCSVMHEALHNHYTQKSLSLSLGK light 1: EIVLTQSPATLSLSPGERATLSCRASQGISDYLHWYQQKPGEAPRLLIKYTSQPATGIPARFSGSGSGTDFTLTISSLEPEDFAVYYCQNGHSFPLTFGQGTKLEIKRTVAAPSVFIFPPSDEQLKSGTASVVCLLNNFYPREAKVQWKVDNALQSGNSQESVTEQDSKDSTYSLSSTLTLSKADYEKHKVYACEVTHQGLSSPVTKSFNRGEC heavy 2: not shown light 2: DIVMTQTPLSSPVTLGQPASISCRSSQSLVHRQGNTYFHWLQQRPGQPPRLLIYKVSNRFSGVPDRFSGSGAGTDFTLKISRVEAEDVGVYYCSQSTHVPYTFGQGTKLEIKRTVAAPSVFIFPPSDEQLKSGTASVVCLLNNFYPREAKVQWKVDNALQSGNSQESVTEQDSKDSTYSLSSTLTLSKADYEKHKVYACEVTHQGLSSPVTKSFNRGEC | – | – | no binding
